These results are taken from the RNAGym collection of RNA variant scans (doi:10.1073/pnas.2313332121).

This sample holds only a part of the variants without activity.

B1: TPR 5TU (parent)
chain: GGAUCUUCUCGAUCUAACAAAAAAGACAAAUCUGCCACAAAGCUUGAGAGCAUCUUCGGAUGCAGAGGCGGCAGCCUUCGGUGGCGCGAUAGCGCCAACGUUCUCAACUAUGACACGCAAAACGCGUGCUCCGUUGAAUGGAGUUUAUCAUG

In the series the parent is B1. The series is described as follows: polymerase ribozyme fitness, log enrichment relative to wild type (log ratio); higher = more active; in vitro selection for triplet polymerase activity. The gist of the method: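 Genotype fitness is the logarithm of its enrichment divided by wild-type enrichment, using inverse-variance-weighted averages of replicates. That logarithm is base 2. Enrichment was measured by Illumina sequencing of input and output libraries from one triplicate in vitro selection round, with frozen incubation at −7 °C, on PCR-built, transcribed mutant libraries of each subunit of a heterodimeric triplet polymerase ribozyme, retaining genotypes with ≥10 input reads and ≥1 read per output.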
As to A49G A60U, the “polymerase ribozyme fitness (log ratio)” value is -1.62.

With A49C C54U, the “polymerase ribozyme fitness (log ratio)” value is not above -4.2. To G48C U55A C103G belongs -0.533; to A49C C75A G81C C93G A106C U109A G136A, not above -4.2; to A49G G83A U144G A147U, -1.87. The figure for G48C G58A A91G is -3.21; for G48C A91G C105U A147G it is not above -4.2; for A49G A142C it is -1.59. To A49C C51A C99U C132G belongs not above -4.2; to G50A A150U, -1.41. On to A49C U109G G152U, for which the “polymerase ribozyme fitness (log ratio)” value was -4.18. The figure for G48C C96A U111A A138C is not above -4.2. The figure for A49C G67A G92U A138C is not above -4.2; for G50A A91U it is not above -4.2. To A49U U61A C87A G140C belongs not above -4.2; to G48U G94A U151C, not above -4.2; to G48U U55A C99U, -2.23. A49U U56G C85U G86U U102C: the “polymerase ribozyme fitness (log ratio)” value is not above -4.2. For the variant A49U C103G, the “polymerase ribozyme fitness (log ratio)” value is not above -4.2. To A49C G84C U90G C103G A115U belongs not above -4.2; to G48C U53G, -3.59. With A49U G62C C123U, the “polymerase ribozyme fitness (log ratio)” value is -2.38.

As for G48U C118G, the “polymerase ribozyme fitness (log ratio)” value was -0.339. The figure for A49C G62C U139C is not above -4.2. To G48C C76A U90G U130G belongs not above -4.2. To A49C G92U U127C belongs not above -4.2; to A49G U55G C57U A60G C75G C76U U90A U102C U134G G140C, not above -4.2.

A49C G68A: the “polymerase ribozyme fitness (log ratio)” value is not above -4.2. The figure for G48C A113C U148C is not above -4.2; for A49G C105U A113G A115C A147U it is not above -4.2; for G50A A142C it is -3.12.

Regarding A49C A52C U56C C87G C95U A98G A107C A119G, the “polymerase ribozyme fitness (log ratio)” value is -4.17.

As to A49G G50A C54A A66G U82A C108U C125A, the “polymerase ribozyme fitness (log ratio)” value was not above -4.2.

Take A49G A52C C95U C96A C99A: the “polymerase ribozyme fitness (log ratio)” value was not above -4.2.

Turning to G48U G83A U134A G136A, the “polymerase ribozyme fitness (log ratio)” value was -2.44.

A49G C85G C93U: the “polymerase ribozyme fitness (log ratio)” value was not above -4.2. The figure for A49C C79A C108U C123A is not above -4.2; for A49U C57G U61A A73G G88C A97C U135A G152A it is not above -4.2; for A49C C51U A73G it is not above -4.2.

With G48U A52U C93A C95U U145A, the “polymerase ribozyme fitness (log ratio)” value was not above -4.2. To A49G A122U G124U belongs -0.811. To A49C A98G belongs not above -4.2; to G48C C76U, -3.15; to G48C G59C A73G C76U C96U U101C, -3.78.

Regarding A49C G88U C96G A115U U148G, the “polymerase ribozyme fitness (log ratio)” value was not above -4.2. The figure for A49C U77G A121C U148A is not above -4.2; for A49U A97U A106G C116U it is -2.93. To G48U G126U belongs -0.307; to A49U A119C U127A U134A, not above -4.2; to A49C G143A, -4.14. The figure for A49C C103G A110C is not above -4.2; for A49G G94A U127C it is -3.23. In the case of A49G C87A A89C U90A C129U, the “polymerase ribozyme fitness (log ratio)” value is not above -4.2. For the variant A49G C93G U102G A106G, the “polymerase ribozyme fitness (log ratio)” value is not above -4.2. Turning to A49U A142C, the “polymerase ribozyme fitness (log ratio)” value is -1.43.

As to A49C A52G G83A U102G U134G, the “polymerase ribozyme fitness (log ratio)” value is -3.78. To A49G U139A belongs -4.08. To A49U C85G A115C belongs -3.64.

As to A49C G74C C87A C125U, the “polymerase ribozyme fitness (log ratio)” value was not above -4.2. To G48C U56C A73G C118A belongs -2.46; to G48C U82G G128C U135A, -3.96. The figure for A49C C103A is -3.96; for A49C C87A C132A it is not above -4.2. The figure for A49C A52C A91U U130A U134A U135C A142G is not above -4.2; for G50A A52C G81C it is -2.82. As for A49U U61A A138C G140C, the “polymerase ribozyme fitness (log ratio)” value is not above -4.2.

As for G48C C54U G58C C87U C123U, the “polymerase ribozyme fitness (log ratio)” value is -1.05.

In the case of A49G A52C, the “polymerase ribozyme fitness (log ratio)” value was -1.27.

Regarding G50A A66G, the “polymerase ribozyme fitness (log ratio)” value is -3.75.

In the case of A49C G59U U77C G81C U109G G141C, the “polymerase ribozyme fitness (log ratio)” value was not above -4.2.

A49G A52C G59A G84A G94U C103U: the “polymerase ribozyme fitness (log ratio)” value was not above -4.2. To A49U U101C C116U belongs -1.49; to A49U U53A G92U C116A, -1.33. Turning to A49C U82A G86A G126A, the “polymerase ribozyme fitness (log ratio)” value was not above -4.2.

With A49C A89U A138U, the “polymerase ribozyme fitness (log ratio)” value was not above -4.2. Take A49G C76U A89C C96A: the “polymerase ribozyme fitness (log ratio)” value is -2.23. The figure for A49C G58C A66G C93G A107U A120U is not above -4.2; for G50A A60C G62A C76U C96U G100U C108G it is not above -4.2; for A49C C57U U101G it is -2.69. To A49U A110U G117U belongs not above -4.2; to A49C G68C G81C C93A G126A, not above -4.2; to G48C G92U, -1.69.

With A49G U55A A73G, the “polymerase ribozyme fitness (log ratio)” value is -3.1.

As to G48C C51U C85U C129A U145C, the “polymerase ribozyme fitness (log ratio)” value was not above -4.2.
